Data published in US20230038638A1, “COMPLEMENT FACTOR I-RELATED COMPOSITIONS AND METHODS” (published 2023).

Experiments:
[1] = target: soluble human C3b (human) (UniProt P01024)
[2] = target: T1, human C4b (human) (UniProt P0C0L5)
T1 sequence: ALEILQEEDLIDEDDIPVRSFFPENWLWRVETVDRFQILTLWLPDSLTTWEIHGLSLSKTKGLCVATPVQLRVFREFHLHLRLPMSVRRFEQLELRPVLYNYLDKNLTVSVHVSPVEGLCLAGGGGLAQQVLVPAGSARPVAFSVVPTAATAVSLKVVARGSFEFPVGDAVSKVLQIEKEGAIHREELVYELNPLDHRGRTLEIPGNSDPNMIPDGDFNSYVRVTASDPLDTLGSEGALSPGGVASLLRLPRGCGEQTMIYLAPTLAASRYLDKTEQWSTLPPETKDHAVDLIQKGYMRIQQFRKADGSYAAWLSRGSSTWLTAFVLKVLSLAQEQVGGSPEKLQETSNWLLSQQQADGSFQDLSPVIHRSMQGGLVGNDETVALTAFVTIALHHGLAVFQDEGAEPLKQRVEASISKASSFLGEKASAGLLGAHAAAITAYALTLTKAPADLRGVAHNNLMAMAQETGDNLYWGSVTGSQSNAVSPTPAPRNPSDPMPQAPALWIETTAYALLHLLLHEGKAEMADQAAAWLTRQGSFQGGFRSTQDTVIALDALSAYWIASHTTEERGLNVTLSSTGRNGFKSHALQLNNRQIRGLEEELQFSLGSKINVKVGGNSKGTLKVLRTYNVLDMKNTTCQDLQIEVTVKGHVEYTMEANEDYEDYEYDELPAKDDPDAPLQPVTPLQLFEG

Work on “CFI-HSA N531G; P535A; ΔC-term (Δ558-PFISQYNV (SEQ ID NO: 14)-565) (enzyme)” yielded an iC3b Screen Ref Fold (fold vs CFI-HSA wild type) [1] of 0.24 and a C4b Screen Ref Fold (fold vs CFI-HSA wild type) [2] of 0.96.

CFI-HSA R557F (enzyme) showed an iC3b Screen Ref Fold (fold vs CFI-HSA wild type) [1] of 0.12 and a C4b Screen Ref Fold (fold vs CFI-HSA wild type) [2] of 2.13.

CFI-HSA E401G (enzyme) showed an iC3b Screen Ref Fold (fold vs CFI-HSA wild type) [1] of 2.1 and a C4b Screen Ref Fold (fold vs CFI-HSA wild type) [2] of 0.82.

“CFI-HSA variant Δ(K1-P305); Y408L; N531G (enzyme)” gave an iC3b Screen Ref Fold (fold vs CFI-HSA wild type) [1] of 0.05 and a C4b Screen Ref Fold (fold vs CFI-HSA wild type) [2] of 0.14.

CFI-HSA R557Q (enzyme) showed an iC3b Screen Ref Fold (fold vs CFI-HSA wild type) [1] of 0.08 and a C4b Screen Ref Fold (fold vs CFI-HSA wild type) [2] of 2.12.

In the case of “CFI-HSA Y408L; E457G; E461Q; R462K; N531G; ΔC-term (Δ558-PFISQYNV (SEQ ID NO: 14)-565) (enzyme)”, the iC3b Screen Ref Fold (fold vs CFI-HSA wild type) [1] is reported as 0.24 and the C4b Screen Ref Fold (fold vs CFI-HSA wild type) [2] is reported as 1.67.

Work on “CFI-HSA variant S552G; Y553H; F559L; P558S (enzyme)” yielded an iC3b Screen Ref Fold (fold of CFI-HSA wild type) [1] of 0.18 and a C4b Screen Ref Fold (fold of CFI-HSA wild type) [2] of 2.33.

In the case of “CFI-HSA variant N531G; WT; GGSSGG (SEQ ID NO: 6); CR1(ccp15-17) (from UniProt P17927) (enzyme)”, the iC3b Screen Ref Fold (fold of CFI-HSA wild type) [1] is reported as 0.05 and the C4b Screen Ref Fold (fold of CFI-HSA wild type) [2] is reported as 5.3.

“CFI-HSA variant E457G; GGSSGG (SEQ ID NO: 6); CR1(ccp1-3) (from UniProt P17927) (enzyme)” was tested, and the iC3b Screen Ref Fold (fold of CFI-HSA wild type) [1] was -0.04 and the C4b Screen Ref Fold (fold of CFI-HSA wild type) [2] was 1.73.

Substance CFI-HSA variant P535G (enzyme) has an iC3b Screen Ref Fold (fold vs CFI-HSA wild type) [1] of 0.19 and a C4b Screen Ref Fold (fold vs CFI-HSA wild type) [2] of 0.3.

Substance CFI-HSA K424L (enzyme) has an iC3b Screen Ref Fold (fold vs CFI-HSA wild type) [1] of 0.91 and a C4b Screen Ref Fold (fold vs CFI-HSA wild type) [2] of 0.28.

Work on CFI-HSA R557H (enzyme) yielded an iC3b Screen Ref Fold (fold vs CFI-HSA wild type) [1] of 0.11 and a C4b Screen Ref Fold (fold vs CFI-HSA wild type) [2] of 2.44.

Substance “CFI-HSA variant S552G; Y553H; F559L; V565I; P558S (enzyme)” has an iC3b Screen Ref Fold (fold of CFI-HSA wild type) [1] of 0.62 and a C4b Screen Ref Fold (fold of CFI-HSA wild type) [2] of 2.44.

Work on “CFI-HSA variant Y408L; E457G; P535G; P558S (enzyme)” yielded an iC3b Screen Ref Fold (fold of CFI-HSA wild type) [1] of 0.7 and a C4b Screen Ref Fold (fold of CFI-HSA wild type) [2] of 1.08.

Substance “CFI-HSA variant E457G; N531G; WT; GGSSGG (SEQ ID NO: 6); CR1(ccp15-17) (from UniProt P17927) (enzyme)” has an iC3b Screen Ref Fold (fold of CFI-HSA wild type) [1] of 0.15 and a C4b Screen Ref Fold (fold of CFI-HSA wild type) [2] of 4.95.

“CFI-HSA variant S552G; F559L; P558S (enzyme)” was tested, and the iC3b Screen Ref Fold (fold of CFI-HSA wild type) [1] was 0.44 and the C4b Screen Ref Fold (fold of CFI-HSA wild type) [2] was 0.93.

CFI-HSA N531G; E530Y (enzyme) was tested, and the iC3b Screen Ref Fold (fold vs CFI-HSA wild type) [1] was 2.48 and the C4b Screen Ref Fold (fold vs CFI-HSA wild type) [2] was 3.41.

CFI-HSA R365L (enzyme) was tested, and the iC3b Screen Ref Fold (fold vs CFI-HSA wild type) [1] was 0.16 and the C4b Screen Ref Fold (fold vs CFI-HSA wild type) [2] was 0.6.

With CFI-HSA variant Y408L; K534Q (enzyme) the iC3b Screen Ref Fold (fold of CFI-HSA wild type) [1] was 0.97 and the C4b Screen Ref Fold (fold of CFI-HSA wild type) [2] was 1.26.

CFI-HSA D549H (enzyme) was tested, and the iC3b Screen Ref Fold (fold vs CFI-HSA wild type) [1] was 0.73 and the C4b Screen Ref Fold (fold vs CFI-HSA wild type) [2] was 0.92.

With “(HSA-GS)-V311-V565 - G(13) - K1-G310; C309S; C435S (enzyme)” the iC3b Screen Ref Fold (fold vs CFI-HSA wild type) [1] was 0.03 and the C4b Screen Ref Fold (fold vs CFI-HSA wild type) [2] was 0.06.

With CFI-HSA K423G (enzyme) the iC3b Screen Ref Fold (fold vs CFI-HSA wild type) [1] was 0.69 and the C4b Screen Ref Fold (fold vs CFI-HSA wild type) [2] was 0.15.

CFI-HSA R557L (enzyme) showed an iC3b Screen Ref Fold (fold vs CFI-HSA wild type) [1] of 0.15 and a C4b Screen Ref Fold (fold vs CFI-HSA wild type) [2] of 2.27.

“(HSA-GS)-V311-V565 - G(13) - K1-G310 (enzyme)” showed an iC3b Screen Ref Fold (fold vs CFI-HSA wild type) [1] of 0.03 and a C4b Screen Ref Fold (fold vs CFI-HSA wild type) [2] of 0.34.

For CFI-HSA R557D (enzyme), the iC3b Screen Ref Fold (fold vs CFI-HSA wild type) [1] was -0.01 and the C4b Screen Ref Fold (fold vs CFI-HSA wild type) [2] was 0.5.

In the case of CFI-HSA variant F559L; V565I (enzyme), the iC3b Screen Ref Fold (fold of CFI-HSA wild type) [1] is reported as 1.59 and the C4b Screen Ref Fold (fold of CFI-HSA wild type) [2] is reported as 0.77.
